B1: proteosome (prosome, macropain) subunit, beta type, 3 (other)
chain: SIMSYNGGAVMAMKGKNCVAIAADRRFGIQAQLVTTDFQKIFPMGDRLYIGLAGLATDVQTVAQRLKFRLNLYELKEGRQIKPYTLMSMVANLLYEKRFGPYYTEPVIAGLDPKTFKPFICSLDLIGCPMVTDDFVVSGTCAEQMYGMCESLWEPNMDPDHLFETISQAMLNAVDRDAVSGMGVIVHIIEKDKITTRTLKARMD
notes: also called PSMB3; cbe_3842044
B2: Human papillomavirus 11 E7 (other)
chain: MHGRLVTLKDIVLDLQPPDPVGLHCYEQLEDSSEDEVDKVDKQDAQPLTQHYQILTCCCGCDSNVRLVVECTDGDIRQLQDLLLGTLNIVCPICAPKP
notes: also called HPV 11 E7; cbe_250834
B3: HPV 16 E1-E4 (other)
chain: MADPAAATKYPLLKLLGSTWPTTPPRPIPKPSPWAPKKHRRLSSDQDQSQTPETPATPLSCCTETQWTVLQSSLHLTAHTKDGLTVIVTLHP
notes: also called cbe_251059
B4: Human papillomavirus 11 E1 (other)
chain: MADDSGTENEGSGCTGWFMVEAIVEHTTGTQISEDEEEEVEDSGYDMVDFIDDRHITQNSVEAQALFNRQEADAHYATVQDLKRKYLGSPYVSPISNVANAVESEISPRLDAIKLTTQPKKVKRRLFETRELTDSGYGYSEVEAATQVEKHGDPENGGDGQERDTGRDIEGEGVEHREAEAVDDSTREHADTSGILELLKCKDIRSTLHGKFKDCFGLSFVDLIRPFKSDRTTCADWVVAGFGIHHSIADAFQKLIEPLSLYAHIQWLTNAWGMVLLVLIRFKVNKSRCTVARTLGTLLNIPENHMLIEPPKIQSGVRALYWFRTGISNASTVIGEAPEWITRQTVIEHSLADSQFKLTEMVQWAYDNDICEESEIAFEYAQRGDFDSNARAFLNSNMQAKYVKDCAIMCRHYKHAEMKKMSIKQWIKYRGTKVDSVGNWKPIVQFLRHQNIEFIPFLSKLKLWLHGTPKKNCIAIVGPPDTGKSCFCMSLIKFLGGTVISYVNSCSHFWLQPLTDAKVALLDDATQPCWTYMDTYMRNLLDGNPMSIDRKHRALTLIKCPPLLVTSNIDISKEEKYKYLHSRVTTFTFPNPFPFDRNGNAVYELSDANWKCFFERLSSSLDIEDSEDEEDGSNSQAFRCVPGSVVRTL
notes: also called HPV 11 E1; cbe_251663
B5: hypothetical protein FLJ20343 (other)
chain: MAQPHTTSVPYFARSPAPPPPSRSGAPPQPPATLRPSRRRTRPPRPADRRDAPADCAYLWRILTPRRGRARRSDVGARHRACGRRDVLLSRQGPANPEGARRVVGGQERVWPAVRRGRGGSMFRLLSWSLGRGFLRAAGRRCRGCSARLLPGLAGGPGPEVQVPPSRVAPHGRGPGLLPLLAALAWFSRPAAAEEEEQQGADGAAAEDGADEAEAEIIQLLKRAKLSIMKDEPEEAELILHDALRLAYQTDNKKAITYTYDLMANLAFIRGQLENAEQLFKATMSYLLGGGMKQEDNAIIEISLKLASIYAAQNRQEFAVAGYEFCISTLEEKIEREKELAEDIMSVEEKANTHLLLGMCLDACARYLLFSKQPSQAQRMYEKALQISEEIQGERHPQTIVLMSDLATTLDAQGRFDEAYIYMQRASDLARQINHPELHMVLSNLAAVLMHRERYTQAKEIYQEALKQAKLKKDEISVQHIREELAELSKKSRPLTNSVKL
notes: also called cbe_3880186
B6: gbh_af252829 (other)
chain: MGKKQNRKTGNSKTQSTSPPPKERSSSPATDQSWMENDFDELREEGFRRSNYSELREDIQTKGKEVENFEKNLEECITRITNTEKCLKELMELKTKARELREECRSLRSQCDQLEERVSAMEDEMNEMKQEGKFREKRIKRNEQSLQEIWDYVKRPNLRLIGVPESDAENGTKLENTLQDIIQETFPNLARQANVQIQEIQRTPQRYSSRRATPRHIIVRFTKVEMKEKMLRAAREKGRVTLKGKPIRLTADLSAETLQARREWGPILNILKEKNFQPRISYPAKLSFISEGEIKYFTDKQMLTDFVTSRPALKELLKEALNMERNNRYQPLQNHAKM
notes: also called Homo sapiens chromosome 8 clone BAC 495D4 map 8q24; cbe_3454406

Test [1] has as its target B4. Kind of test: Y2H; INT ID 51.
A further test concerns the target T1, PTPN21 (human, UniProt Q16825 1-1174).
T1 construct: also called cbe_4260642
T1 sequence: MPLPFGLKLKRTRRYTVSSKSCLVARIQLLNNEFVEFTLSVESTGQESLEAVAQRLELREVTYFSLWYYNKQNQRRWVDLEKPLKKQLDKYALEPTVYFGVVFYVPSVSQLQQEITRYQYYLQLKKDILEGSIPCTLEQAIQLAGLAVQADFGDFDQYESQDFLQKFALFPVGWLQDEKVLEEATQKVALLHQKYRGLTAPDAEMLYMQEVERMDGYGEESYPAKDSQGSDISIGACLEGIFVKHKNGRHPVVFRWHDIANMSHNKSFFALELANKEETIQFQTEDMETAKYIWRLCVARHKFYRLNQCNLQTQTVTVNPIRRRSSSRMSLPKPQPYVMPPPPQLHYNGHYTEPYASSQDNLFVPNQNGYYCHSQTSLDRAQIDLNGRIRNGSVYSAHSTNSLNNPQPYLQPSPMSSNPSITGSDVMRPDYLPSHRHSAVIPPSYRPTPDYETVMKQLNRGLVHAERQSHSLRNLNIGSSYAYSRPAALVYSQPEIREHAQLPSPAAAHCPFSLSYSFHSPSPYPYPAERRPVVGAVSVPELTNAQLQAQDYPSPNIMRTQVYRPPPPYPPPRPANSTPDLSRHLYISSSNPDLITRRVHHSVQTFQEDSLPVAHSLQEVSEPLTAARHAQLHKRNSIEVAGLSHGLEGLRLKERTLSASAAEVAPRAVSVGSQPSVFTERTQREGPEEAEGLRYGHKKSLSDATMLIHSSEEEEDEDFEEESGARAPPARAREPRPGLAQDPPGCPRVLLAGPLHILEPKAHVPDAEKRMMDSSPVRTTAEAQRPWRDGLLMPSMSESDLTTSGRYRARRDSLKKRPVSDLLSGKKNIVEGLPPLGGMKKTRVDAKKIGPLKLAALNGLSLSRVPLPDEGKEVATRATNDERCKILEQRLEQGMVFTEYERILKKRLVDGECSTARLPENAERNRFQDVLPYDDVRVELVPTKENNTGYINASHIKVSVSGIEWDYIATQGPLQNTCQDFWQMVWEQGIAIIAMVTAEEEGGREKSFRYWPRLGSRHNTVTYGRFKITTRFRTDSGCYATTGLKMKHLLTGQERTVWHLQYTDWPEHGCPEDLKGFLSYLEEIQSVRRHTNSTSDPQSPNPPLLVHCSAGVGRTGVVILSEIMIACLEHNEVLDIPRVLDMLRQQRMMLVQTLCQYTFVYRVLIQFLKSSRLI
Kind of test: Y2H; INT ID 41.

Another test deals with T2, ITGB4 (human, UniProt P16144 28-1822).
T2 construct: also called cbe_4280774
Kind of test: Y2H; INT ID 49.

Test [2] addresses T3, signal-induced proliferation-associated 1 like 1 (human, UniProt O43166 1-1804).
T3 construct: also called KIAA0440; cbe_3056756
Kind of test: Y2H; INT ID 37.

For the next test, the target named is T4, PCDH1 (human, UniProt Q08174 58-1060).
T4 construct: also called cbe_4269156
T4 sequence: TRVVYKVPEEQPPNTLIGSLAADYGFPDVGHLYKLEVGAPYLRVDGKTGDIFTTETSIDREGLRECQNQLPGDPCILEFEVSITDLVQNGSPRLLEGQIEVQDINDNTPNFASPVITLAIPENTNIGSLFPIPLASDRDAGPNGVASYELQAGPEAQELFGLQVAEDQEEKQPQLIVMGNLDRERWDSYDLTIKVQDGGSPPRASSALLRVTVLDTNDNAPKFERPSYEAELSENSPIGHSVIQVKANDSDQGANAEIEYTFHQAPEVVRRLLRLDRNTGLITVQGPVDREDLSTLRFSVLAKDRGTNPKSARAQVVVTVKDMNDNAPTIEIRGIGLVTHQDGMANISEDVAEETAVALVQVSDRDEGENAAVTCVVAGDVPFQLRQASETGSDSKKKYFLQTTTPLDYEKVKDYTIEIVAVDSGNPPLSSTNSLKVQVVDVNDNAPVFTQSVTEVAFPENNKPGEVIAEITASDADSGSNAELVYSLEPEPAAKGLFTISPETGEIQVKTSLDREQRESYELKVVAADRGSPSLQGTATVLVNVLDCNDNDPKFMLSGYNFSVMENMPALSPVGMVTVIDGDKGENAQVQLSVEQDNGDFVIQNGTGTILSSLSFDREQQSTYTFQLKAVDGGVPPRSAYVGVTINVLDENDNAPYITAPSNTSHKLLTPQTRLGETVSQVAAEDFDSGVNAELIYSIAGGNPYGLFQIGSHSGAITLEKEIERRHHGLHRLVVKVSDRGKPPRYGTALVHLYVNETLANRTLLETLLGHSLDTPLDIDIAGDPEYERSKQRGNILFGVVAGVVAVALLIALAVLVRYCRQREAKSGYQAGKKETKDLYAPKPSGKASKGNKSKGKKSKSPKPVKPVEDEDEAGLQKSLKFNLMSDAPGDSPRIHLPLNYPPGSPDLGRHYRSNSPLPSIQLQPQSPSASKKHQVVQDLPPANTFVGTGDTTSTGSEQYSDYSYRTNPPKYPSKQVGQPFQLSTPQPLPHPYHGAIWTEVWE
Nature of the test: Y2H; INT ID 142.

The target in test [3] is T5, PEST-containing nuclear protein (human, UniProt Q8WW12 2-178).
T5 construct: also called pcnp; PCNP
T5 sequence: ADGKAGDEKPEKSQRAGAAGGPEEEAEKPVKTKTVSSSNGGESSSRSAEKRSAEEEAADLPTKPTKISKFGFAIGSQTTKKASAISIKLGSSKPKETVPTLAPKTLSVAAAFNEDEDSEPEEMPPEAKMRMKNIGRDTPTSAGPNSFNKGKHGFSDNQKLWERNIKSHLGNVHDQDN
Kind of test: Y2H; INT ID 140.

For a further test, the target named is T6, RABIF (human, UniProt P47224 1-123).
T6 construct: also called cbe_3472582
T6 sequence: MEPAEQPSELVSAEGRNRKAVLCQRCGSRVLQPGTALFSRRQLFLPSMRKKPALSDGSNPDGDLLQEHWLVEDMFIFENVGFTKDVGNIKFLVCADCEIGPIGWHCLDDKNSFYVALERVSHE
Nature of the test: Y2H; INT ID 139.

The target in another test is T7, DKFZP434I1735 protein (human, UniProt Q86XA9 451-2040).
T7 construct: also called cbe_3643627
Kind of test: Y2H; INT ID 50.

The test “HPV 16 E1-E4” deals with B3. Kind of test: Y2H; INT ID 141.
For test [4], the target named is B2. Nature of the test: Y2H; INT ID 38.

Experimental findings from patent US20050100554A1 (published 2005) are described below.

T3 sequence (O43166 whole entry): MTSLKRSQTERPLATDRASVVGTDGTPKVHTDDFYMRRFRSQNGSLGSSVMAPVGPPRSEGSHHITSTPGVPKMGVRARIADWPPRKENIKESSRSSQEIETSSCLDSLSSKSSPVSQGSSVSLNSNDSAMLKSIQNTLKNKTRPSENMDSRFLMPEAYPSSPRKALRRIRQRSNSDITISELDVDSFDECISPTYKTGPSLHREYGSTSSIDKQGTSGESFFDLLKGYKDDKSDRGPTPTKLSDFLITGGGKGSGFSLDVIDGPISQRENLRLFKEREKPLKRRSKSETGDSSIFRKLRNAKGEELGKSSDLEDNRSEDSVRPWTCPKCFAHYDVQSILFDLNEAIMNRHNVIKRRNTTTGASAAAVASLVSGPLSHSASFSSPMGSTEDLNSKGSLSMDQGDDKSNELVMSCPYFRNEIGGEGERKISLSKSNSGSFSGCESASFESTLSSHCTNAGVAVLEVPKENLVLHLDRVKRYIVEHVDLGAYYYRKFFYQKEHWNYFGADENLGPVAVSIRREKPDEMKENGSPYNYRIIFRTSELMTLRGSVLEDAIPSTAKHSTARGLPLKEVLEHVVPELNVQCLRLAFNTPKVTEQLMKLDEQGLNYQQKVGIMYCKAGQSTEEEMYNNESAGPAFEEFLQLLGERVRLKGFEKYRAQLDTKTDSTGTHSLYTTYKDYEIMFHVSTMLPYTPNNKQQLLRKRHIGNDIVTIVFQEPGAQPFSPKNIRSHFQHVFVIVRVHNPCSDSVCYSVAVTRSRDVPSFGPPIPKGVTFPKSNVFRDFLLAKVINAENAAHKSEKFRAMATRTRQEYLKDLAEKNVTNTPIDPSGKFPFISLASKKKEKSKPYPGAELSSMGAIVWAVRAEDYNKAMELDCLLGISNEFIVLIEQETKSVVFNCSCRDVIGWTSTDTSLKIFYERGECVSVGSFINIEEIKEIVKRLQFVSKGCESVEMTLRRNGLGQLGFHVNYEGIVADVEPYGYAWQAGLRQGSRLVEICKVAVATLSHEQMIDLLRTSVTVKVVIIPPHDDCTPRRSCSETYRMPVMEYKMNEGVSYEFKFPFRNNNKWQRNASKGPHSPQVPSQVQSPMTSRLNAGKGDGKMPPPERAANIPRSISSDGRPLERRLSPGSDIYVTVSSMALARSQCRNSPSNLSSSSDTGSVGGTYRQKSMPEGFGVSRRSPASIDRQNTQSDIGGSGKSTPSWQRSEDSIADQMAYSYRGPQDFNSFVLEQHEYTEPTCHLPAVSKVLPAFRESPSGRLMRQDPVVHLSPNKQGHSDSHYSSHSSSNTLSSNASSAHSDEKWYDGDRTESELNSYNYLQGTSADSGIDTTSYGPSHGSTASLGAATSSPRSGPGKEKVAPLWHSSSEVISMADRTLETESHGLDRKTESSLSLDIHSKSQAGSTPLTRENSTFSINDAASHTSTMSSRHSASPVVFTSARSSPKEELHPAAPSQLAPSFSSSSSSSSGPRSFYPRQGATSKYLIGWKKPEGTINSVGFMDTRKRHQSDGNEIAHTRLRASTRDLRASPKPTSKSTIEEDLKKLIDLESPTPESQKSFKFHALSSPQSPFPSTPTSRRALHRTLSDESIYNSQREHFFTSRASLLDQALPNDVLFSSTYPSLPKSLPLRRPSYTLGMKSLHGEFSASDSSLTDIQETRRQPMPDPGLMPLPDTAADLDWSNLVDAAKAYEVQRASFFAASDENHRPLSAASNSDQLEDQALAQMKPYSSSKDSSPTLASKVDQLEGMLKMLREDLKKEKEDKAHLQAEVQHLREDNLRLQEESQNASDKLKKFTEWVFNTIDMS
T2 sequence (P16144 28-1822 limits assumed): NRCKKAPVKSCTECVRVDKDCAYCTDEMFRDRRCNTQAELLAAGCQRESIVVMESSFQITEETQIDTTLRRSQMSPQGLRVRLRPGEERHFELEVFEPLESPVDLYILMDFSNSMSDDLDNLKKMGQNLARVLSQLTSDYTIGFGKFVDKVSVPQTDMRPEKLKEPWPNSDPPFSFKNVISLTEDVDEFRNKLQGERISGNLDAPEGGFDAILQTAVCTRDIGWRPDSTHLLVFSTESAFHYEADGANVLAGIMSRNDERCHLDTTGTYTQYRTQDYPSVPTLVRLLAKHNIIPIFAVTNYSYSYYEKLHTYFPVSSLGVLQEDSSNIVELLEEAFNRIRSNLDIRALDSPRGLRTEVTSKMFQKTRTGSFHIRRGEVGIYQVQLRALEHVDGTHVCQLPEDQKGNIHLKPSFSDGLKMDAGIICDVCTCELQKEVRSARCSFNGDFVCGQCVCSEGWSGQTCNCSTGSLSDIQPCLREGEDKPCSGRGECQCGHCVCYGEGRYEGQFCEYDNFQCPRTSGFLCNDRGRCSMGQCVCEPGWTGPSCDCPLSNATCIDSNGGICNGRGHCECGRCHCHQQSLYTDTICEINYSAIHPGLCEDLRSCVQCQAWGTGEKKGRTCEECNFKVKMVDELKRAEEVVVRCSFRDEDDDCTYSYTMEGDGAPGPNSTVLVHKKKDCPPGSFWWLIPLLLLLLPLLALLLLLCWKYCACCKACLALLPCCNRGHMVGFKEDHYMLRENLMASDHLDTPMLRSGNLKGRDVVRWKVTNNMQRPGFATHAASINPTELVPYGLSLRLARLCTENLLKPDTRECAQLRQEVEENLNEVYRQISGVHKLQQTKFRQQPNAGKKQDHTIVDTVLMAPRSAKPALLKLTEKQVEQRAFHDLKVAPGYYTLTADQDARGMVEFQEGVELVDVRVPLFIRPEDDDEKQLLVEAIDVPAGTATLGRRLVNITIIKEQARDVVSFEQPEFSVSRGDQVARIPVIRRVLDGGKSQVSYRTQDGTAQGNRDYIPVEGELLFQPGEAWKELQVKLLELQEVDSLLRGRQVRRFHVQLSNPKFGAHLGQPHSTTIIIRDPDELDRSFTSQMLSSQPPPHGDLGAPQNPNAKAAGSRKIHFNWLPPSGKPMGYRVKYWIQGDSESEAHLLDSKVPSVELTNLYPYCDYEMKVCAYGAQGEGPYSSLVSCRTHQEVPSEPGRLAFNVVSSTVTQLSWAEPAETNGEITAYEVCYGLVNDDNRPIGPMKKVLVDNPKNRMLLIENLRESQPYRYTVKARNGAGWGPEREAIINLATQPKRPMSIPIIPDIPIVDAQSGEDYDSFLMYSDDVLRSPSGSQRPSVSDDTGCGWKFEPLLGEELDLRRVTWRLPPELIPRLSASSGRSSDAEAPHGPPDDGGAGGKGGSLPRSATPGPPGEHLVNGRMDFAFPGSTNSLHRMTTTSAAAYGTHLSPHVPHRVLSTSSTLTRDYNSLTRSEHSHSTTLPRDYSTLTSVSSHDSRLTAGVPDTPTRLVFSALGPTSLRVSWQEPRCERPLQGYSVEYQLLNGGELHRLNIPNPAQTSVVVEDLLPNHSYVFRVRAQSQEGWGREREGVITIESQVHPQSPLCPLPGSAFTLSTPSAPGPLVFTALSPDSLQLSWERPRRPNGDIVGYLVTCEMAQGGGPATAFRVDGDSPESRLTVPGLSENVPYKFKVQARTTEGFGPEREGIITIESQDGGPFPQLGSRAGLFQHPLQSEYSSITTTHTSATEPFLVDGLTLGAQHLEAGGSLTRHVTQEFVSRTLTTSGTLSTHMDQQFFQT

Take B1: the binding result in [1] was “binds”.
With B2, the binding result (with PTPN21; in the test with ITGB4; in test [2]) was “binds” in each case.
For B3, the binding result (with PCDH1; in [3]; in the test with RABIF) was “binds” throughout.
For the molecule B4, the binding result in the test with DKFZP434I1735 protein is recorded as “binds”.
Take B5: the binding result with HPV 16 E1-E4 was “binds”.
On to B6, for which the binding result in test [4] is “binds”.
